Legend:
Cdc42Δ7Q61L (human) = Cdc42Δ7Q61L (human) (UniProt P60953); test: scintillation proximity assay; competition; free effector domain titrated into 30 nM Cdc42·[3H]GTP and 30 nM GST-ACK (in Fig. 7B GST-ACK or GST-WASP GBD) immobilised on a fluoromicrosphere; Kd from competition binding isotherms
[1] = target: full-length Cdc42Q61L (human) (UniProt P60953); test: as above
Sequence of full-length Cdc42Q61L (human) (P60953 whole entry Q61L): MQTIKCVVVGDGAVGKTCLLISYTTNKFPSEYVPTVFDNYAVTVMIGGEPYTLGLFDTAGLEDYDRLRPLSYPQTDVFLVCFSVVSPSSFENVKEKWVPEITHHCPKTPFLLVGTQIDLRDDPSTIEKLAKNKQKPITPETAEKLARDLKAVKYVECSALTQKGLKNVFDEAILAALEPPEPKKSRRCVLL

Sequence of Cdc42Δ7Q61L (human) (P60953 1-184 Q61L): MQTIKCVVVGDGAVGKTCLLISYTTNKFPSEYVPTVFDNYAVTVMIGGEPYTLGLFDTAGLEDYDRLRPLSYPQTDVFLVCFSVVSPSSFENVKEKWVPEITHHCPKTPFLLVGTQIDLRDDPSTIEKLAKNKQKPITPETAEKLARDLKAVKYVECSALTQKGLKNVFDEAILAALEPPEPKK

Kd (Cdc42Δ7Q61L (human)): 32 nM | Kd [1]: 11 nM
Substance: free ACK GBD (domain or fragment)
